How the values were obtained:
Grb2 (Homo sapiens) = Grb2 (Homo sapiens) (UniProt P62993); settings: cited from earlier work
[1] = molecular target: isolated CSH3 domain of Grb2 (Grb2_(CSH3)); test: MST; target protein labelled with Atto 488 NHS ester, 100 nM; unlabelled ligand serially diluted; Monolith NT.115; 25 °C; 20 mM HEPES pH 7.5, 150 mM NaCl, 0.5 mM TCEP, 0.005% Tween 20
[2] = molecular target: Shp2 N-terminal SH2 domain (Shp2_(NSH2)) (UniProt Q06124); test: as above

Kd [1] | Substance | other results
– | Grb2 (from UniProt P62993) | Kd (Grb2 (Homo sapiens)): 0.8 µM
173 µM | Shp2 PTP domain peptide TKCNNS322KPKK325SYIATQ | –
122 µM | Shp2 PTP domain peptide VERGKS366KCVK369YWPDEY | –
18.1 µM | Shp2 PTP domain peptide WPDHGV429PSDP432GGVLDF | –
– | isolated CSH3 domain of Grb2 (Grb2_(CSH3)) (domain or fragment) | Kd [2]: 207 µM

Source: publication PMC8016844
